No end group written: not given here.

This test concerns the target human calmodulin (CaM) construct possessing an N-terminal His6 tag (human, UniProt P0DP23 1-149). Put plainly: single-molecule TIRF microscopy.

C(Alexa Fluor 555 maleimide)KKKKKRFSFKKSFKLSGFSFKKNKK [Human MARCKS PIP2 binding domain peptide (MARCKS residues 151-175) with an added N-terminal cysteine]: the binding result is “binds”.

The record behind these values is publication PMC5632315 (Biochemistry, 2016).
